The values that follow come from patent US20240209096A1 (INVETX, published 2024).

T1: canine FcRn (soluble large subunit p51 isoform X2 with 6xHis-tag, co-expressed with canine … (canine))
T1 construct: Heterodimer made by co-expression in CHO cells, purified on HISTRAP FF, >95% pure by SEC; Both entries hold a 19-residue signal peptide at the N-terminus that should be removed (residues 1-19); also called FcRn complex
T1 chain: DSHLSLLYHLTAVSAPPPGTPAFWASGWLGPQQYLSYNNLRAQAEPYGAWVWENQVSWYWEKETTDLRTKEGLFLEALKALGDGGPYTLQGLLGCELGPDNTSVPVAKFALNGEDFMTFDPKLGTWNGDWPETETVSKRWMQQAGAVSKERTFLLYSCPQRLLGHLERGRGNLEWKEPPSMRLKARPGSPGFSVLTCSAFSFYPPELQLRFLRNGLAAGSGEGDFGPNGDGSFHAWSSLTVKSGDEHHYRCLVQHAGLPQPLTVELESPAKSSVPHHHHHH
T1 b2m: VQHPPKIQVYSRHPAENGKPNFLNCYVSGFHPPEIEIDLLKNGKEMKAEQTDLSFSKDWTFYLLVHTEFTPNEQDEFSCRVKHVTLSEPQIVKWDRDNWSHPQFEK

B1: IgG with canine IgGB Fc variant L252M (antibody)
heavy: EVQLVESGGDLVAPSQSLSITCTVSGMSLTSNSISWVRQPPGRGLEWLGTIWSNGGTDYTDAVKGRFTISRDNAKNTVYLQMNSLRAEDTAMYYCAQIYYYDADYLHWYFDFWGQGTLVTVSSASTTAPSVFPLAPSCGSTSGSTVALACLVSGYFPEPVTVSWNSGSLTSGVHTFPSVLQSSGLYSLSSMVTVPSSRWPSETFTCNVAHPASKTKVDKPVPKRENGRVPRPPDCPKCPAPEAAGGPSVFIFPPKPKDTLMIARTPEVTCVVVDLDPEDPEVQISWFVDGKQMQTAKTQPREEQFNGTYRVVSVLPIGHQDWLKGKQFTCKVNNKALPSPIERTISKARGQAHQPSVYVLPPSREELSKNTVSLTCLIKDFFPPDIDVEWQSNGQQEPESKYRTTPPQLDEDGSYFLYSKLSVDKSRWQRGDTFICAVMHEALHNHYTQESLSHSPG
light: EIVMTQSPASLSASQEEKVTITCRASEGISNNLAWYQQKPGQAPKLLIHATSSLQTGVPSRFSGSGSGTDFTLTISSLQPEDFATYYCQQGYQFPLTFGQGTKVEIKRNDAQPAVYLFQPSPDQLHTGSASVVCLLNSFYPKDINVKWKVDGVIQDTGIQESVTEQDKDSTYSLSSTLTMSSTEYLSHELYSCEITHKSLPSTLIKSFQRSECQRVD
notes: Full chains; canine IgGB constant domain with MALA mutations; variable domains of WO 2023/97275
B2: IgG with canine IgGB Fc variant L252M, T286L (antibody)
heavy: EVQLVESGGDLVAPSQSLSITCTVSGMSLTSNSISWVRQPPGRGLEWLGTIWSNGGTDYTDAVKGRFTISRDNAKNTVYLQMNSLRAEDTAMYYCAQIYYYDADYLHWYFDFWGQGTLVTVSSASTTAPSVFPLAPSCGSTSGSTVALACLVSGYFPEPVTVSWNSGSLTSGVHTFPSVLQSSGLYSLSSMVTVPSSRWPSETFTCNVAHPASKTKVDKPVPKRENGRVPRPPDCPKCPAPEAAGGPSVFIFPPKPKDTLMIARTPEVTCVVVDLDPEDPEVQISWFVDGKQMQLAKTQPREEQFNGTYRVVSVLPIGHQDWLKGKQFTCKVNNKALPSPIERTISKARGQAHQPSVYVLPPSREELSKNTVSLTCLIKDFFPPDIDVEWQSNGQQEPESKYRTTPPQLDEDGSYFLYSKLSVDKSRWQRGDTFICAVMHEALHNHYTQESLSHSPG
light: EIVMTQSPASLSASQEEKVTITCRASEGISNNLAWYQQKPGQAPKLLIHATSSLQTGVPSRFSGSGSGTDFTLTISSLQPEDFATYYCQQGYQFPLTFGQGTKVEIKRNDAQPAVYLFQPSPDQLHTGSASVVCLLNSFYPKDINVKWKVDGVIQDTGIQESVTEQDKDSTYSLSSTLTMSSTEYLSHELYSCEITHKSLPSTLIKSFQRSECQRVD
notes: as for B1
B3: IgG with canine IgGB Fc variant L252M, A426Y (antibody)
heavy: EVQLVESGGDLVAPSQSLSITCTVSGMSLTSNSISWVRQPPGRGLEWLGTIWSNGGTDYTDAVKGRFTISRDNAKNTVYLQMNSLRAEDTAMYYCAQIYYYDADYLHWYFDFWGQGTLVTVSSASTTAPSVFPLAPSCGSTSGSTVALACLVSGYFPEPVTVSWNSGSLTSGVHTFPSVLQSSGLYSLSSMVTVPSSRWPSETFTCNVAHPASKTKVDKPVPKRENGRVPRPPDCPKCPAPEAAGGPSVFIFPPKPKDTLMIARTPEVTCVVVDLDPEDPEVQISWFVDGKQMQTAKTQPREEQFNGTYRVVSVLPIGHQDWLKGKQFTCKVNNKALPSPIERTISKARGQAHQPSVYVLPPSREELSKNTVSLTCLIKDFFPPDIDVEWQSNGQQEPESKYRTTPPQLDEDGSYFLYSKLSVDKSRWQRGDTFICYVMHEALHNHYTQESLSHSPG
light: EIVMTQSPASLSASQEEKVTITCRASEGISNNLAWYQQKPGQAPKLLIHATSSLQTGVPSRFSGSGSGTDFTLTISSLQPEDFATYYCQQGYQFPLTFGQGTKVEIKRNDAQPAVYLFQPSPDQLHTGSASVVCLLNSFYPKDINVKWKVDGVIQDTGIQESVTEQDKDSTYSLSSTLTMSSTEYLSHELYSCEITHKSLPSTLIKSFQRSECQRVD
notes: as for B1
B4: IgG with canine IgGB Fc variant L252M, T286F (antibody)
heavy: EVQLVESGGDLVAPSQSLSITCTVSGMSLTSNSISWVRQPPGRGLEWLGTIWSNGGTDYTDAVKGRFTISRDNAKNTVYLQMNSLRAEDTAMYYCAQIYYYDADYLHWYFDFWGQGTLVTVSSASTTAPSVFPLAPSCGSTSGSTVALACLVSGYFPEPVTVSWNSGSLTSGVHTFPSVLQSSGLYSLSSMVTVPSSRWPSETFTCNVAHPASKTKVDKPVPKRENGRVPRPPDCPKCPAPEAAGGPSVFIFPPKPKDTLMIARTPEVTCVVVDLDPEDPEVQISWFVDGKQMQFAKTQPREEQFNGTYRVVSVLPIGHQDWLKGKQFTCKVNNKALPSPIERTISKARGQAHQPSVYVLPPSREELSKNTVSLTCLIKDFFPPDIDVEWQSNGQQEPESKYRTTPPQLDEDGSYFLYSKLSVDKSRWQRGDTFICAVMHEALHNHYTQESLSHSPG
light: EIVMTQSPASLSASQEEKVTITCRASEGISNNLAWYQQKPGQAPKLLIHATSSLQTGVPSRFSGSGSGTDFTLTISSLQPEDFATYYCQQGYQFPLTFGQGTKVEIKRNDAQPAVYLFQPSPDQLHTGSASVVCLLNSFYPKDINVKWKVDGVIQDTGIQESVTEQDKDSTYSLSSTLTMSSTEYLSHELYSCEITHKSLPSTLIKSFQRSECQRVD
notes: as for B1
B5: IgG with canine IgGB Fc variant L252M, A426H (antibody)
heavy: EVQLVESGGDLVAPSQSLSITCTVSGMSLTSNSISWVRQPPGRGLEWLGTIWSNGGTDYTDAVKGRFTISRDNAKNTVYLQMNSLRAEDTAMYYCAQIYYYDADYLHWYFDFWGQGTLVTVSSASTTAPSVFPLAPSCGSTSGSTVALACLVSGYFPEPVTVSWNSGSLTSGVHTFPSVLQSSGLYSLSSMVTVPSSRWPSETFTCNVAHPASKTKVDKPVPKRENGRVPRPPDCPKCPAPEAAGGPSVFIFPPKPKDTLMIARTPEVTCVVVDLDPEDPEVQISWFVDGKQMQTAKTQPREEQFNGTYRVVSVLPIGHQDWLKGKQFTCKVNNKALPSPIERTISKARGQAHQPSVYVLPPSREELSKNTVSLTCLIKDFFPPDIDVEWQSNGQQEPESKYRTTPPQLDEDGSYFLYSKLSVDKSRWQRGDTFICHVMHEALHNHYTQESLSHSPG
light: EIVMTQSPASLSASQEEKVTITCRASEGISNNLAWYQQKPGQAPKLLIHATSSLQTGVPSRFSGSGSGTDFTLTISSLQPEDFATYYCQQGYQFPLTFGQGTKVEIKRNDAQPAVYLFQPSPDQLHTGSASVVCLLNSFYPKDINVKWKVDGVIQDTGIQESVTEQDKDSTYSLSSTLTMSSTEYLSHELYSCEITHKSLPSTLIKSFQRSECQRVD
notes: as for B1
B6: IgG with canine IgGB Fc variant L252M, A426L (antibody)
heavy: EVQLVESGGDLVAPSQSLSITCTVSGMSLTSNSISWVRQPPGRGLEWLGTIWSNGGTDYTDAVKGRFTISRDNAKNTVYLQMNSLRAEDTAMYYCAQIYYYDADYLHWYFDFWGQGTLVTVSSASTTAPSVFPLAPSCGSTSGSTVALACLVSGYFPEPVTVSWNSGSLTSGVHTFPSVLQSSGLYSLSSMVTVPSSRWPSETFTCNVAHPASKTKVDKPVPKRENGRVPRPPDCPKCPAPEAAGGPSVFIFPPKPKDTLMIARTPEVTCVVVDLDPEDPEVQISWFVDGKQMQTAKTQPREEQFNGTYRVVSVLPIGHQDWLKGKQFTCKVNNKALPSPIERTISKARGQAHQPSVYVLPPSREELSKNTVSLTCLIKDFFPPDIDVEWQSNGQQEPESKYRTTPPQLDEDGSYFLYSKLSVDKSRWQRGDTFICLVMHEALHNHYTQESLSHSPG
light: EIVMTQSPASLSASQEEKVTITCRASEGISNNLAWYQQKPGQAPKLLIHATSSLQTGVPSRFSGSGSGTDFTLTISSLQPEDFATYYCQQGYQFPLTFGQGTKVEIKRNDAQPAVYLFQPSPDQLHTGSASVVCLLNSFYPKDINVKWKVDGVIQDTGIQESVTEQDKDSTYSLSSTLTMSSTEYLSHELYSCEITHKSLPSTLIKSFQRSECQRVD
notes: as for B1

In the assay the target is T1, canine FcRn (soluble large subunit p51 …). Description: SPR, IgG on protein L chip, FcRn in flow, pH 5.9, 1:1 fit. The protocol:
The canine FcRn binding experiments at pH 5.9 and pH 7.4 were completed on a BIACORE™ T200 instrument. A Series S Protein L Sensor chip (Cytiva, Cat. No. BR29205137) was used to capture the antibody variants via the kappa (κ) light chain. The canine variants were captured onto the protein L chip at a flow rate of 10 μL/min for 60 seconds. Approximately 250 RUs of the variants were captured. For the low pH binding condition, 1×PBX-P+ (Cytiva, Cat. No. 28995084) was adjusted to pH 5.9. The canine FcRn was flowed over the sensor chip at 30 μL/min for 120 seconds contact time and 600 seconds dissociation time. Regeneration of the flow cells was completed by flowing over 10 mM glycine, pH 1.7 at 30 μL/min for 30 seconds. The data were evaluated by the BIACORE™ T200 Evaluation software (version 3.2.1) by fitting to a 1:1 kinetic interaction model.
(In SPR one partner is held on a chip, and binding of the other changes the refractive index at the surface.)
For B1, the Kd – broadly, the concentration at which binding is half-saturated – amounted to 40.7 nM; the koff – broadly, the first-order rate constant of dissociation – amounted to 0.00335 s⁻¹; the kon – broadly, a measure of how fast the partners come together – came out at 82400 M⁻¹ s⁻¹.
The matching figures for B2: 90 nM, 0.111 s⁻¹ and 1.23e+06 M⁻¹ s⁻¹.
As for B3, the Kd is 57.4 nM, the koff was 0.0581 s⁻¹ and the kon came out at 1.01e+06 M⁻¹ s⁻¹.
B4 showed a Kd of 71.8 nM, a koff of 0.0937 s⁻¹ and a kon of 1.31e+06 M⁻¹ s⁻¹.
The matching figures for B5: 37 nM, 0.065 s⁻¹ and 1.76e+06 M⁻¹ s⁻¹.
The corresponding values for B6 are 102 nM, 0.111 s⁻¹ and 1.09e+06 M⁻¹ s⁻¹.
